The supplement of paper PMC10567573
± gives the standard deviation.

Test: protein stability index of a GFP-peptide fusion (GPS, HEK-293T) (PSI 1-6); higher = more stable
Conditions: c terminus: a fixed tail appended
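Note: 24-mer peptide tiles fused after GFP, lentivirally expressed, FACS-sorted into six equal bins by GFP/DsRed ratio, decoded by Illumina sequencing, PSI is the read-weighted mean bin number.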

| Sequence | protein stability index (treatment: DMSO) | protein stability index (treatment: MLN4924 1 uM, 8 h) |
| --- | --- | --- |
| LEERLQLQFEAEMARLQEEHGDQL [MTUS2] | 5.4 ± 0.32 | 5.13 ± 0.17 |
| ERRRELVRSQTLPRTSEAQARKAL [SMTNL2] | 5.27 ± 0.39 | 5.27 ± 0.29 |
| IDGDGDDMERFMEEMRELRRKIRE [BEX5] | 3.26 ± 0.24 | 3.71 ± 0.34 |
| QKCHSIGETDEVTKTEDRELVLRK [ZSCAN9] | 5.32 ± 0.3 | 5.37 ± 0.2 |
| PAPSRMQMPQGNPLLLSHTLQELL [SNX8] | 3.08 ± 0.21 | 3.1 ± 0.22 |
| IAQAEEQARKRQEEREKEAAEQAE [SMARCE1] | 5.24 ± 0.12 | 5.892 ± 0.034 |
| FLRQKVLSLPLPDPLKYYLLYYRE [PCMTD2] | 2.24 ± 0.34 | 2.26 ± 0.31 |
| PRSAEPGYLVTKVVAVDRDSGQNA [PCDHGA10] | 4.77 ± 0.16 | 4.7 ± 0.29 |
| MEEMSGESVVSSAVPAAATRTTSF [KCTD10] | 4.76 ± 0.28 | 4.82 ± 0.49 |
| IQEQPGQEQVAGGEAQPGLPQEDP [FEM1A] | 5.58 ± 0.16 | 5.57 ± 0.16 |
| LLDDGQQASPYHPGSCGAGAPSPG [ELF3] | 4.71 ± 0.1 | 4.57 ± 0.39 |
| LPSAQDINRLVGLQNTYMGYLDYR [GLT8D2] | 2.52 ± 0.28 | 2.52 ± 0.38 |
| AALTEALQRQAEQNPTASYYNVVL [FCHO1] | 2.3 ± 0.33 | 2.21 ± 0.33 |
| FNDPFFIVETVCIVWFSFEFVVRC [KCNA4] | 3.38 ± 0.68 | 3.45 ± 0.98 |
| GWILIDRCGKHFGTILNYLRDGAV [KCTD10] | 3.08 ± 0.41 | 2.38 ± 0.52 |
| KLEAEKRILQEKLDQPVSAPPSPR [CCDC6] | 5.24 ± 0.26 | 5.21 ± 0.37 |
| QSYPLCIYLINQKWFGRKRTLSAF [SLC22A15] | 2.46 ± 0.47 | 2.2 ± 0.61 |
| LGLKDKEGYTSFWNDCISSGLRGG [GOLPH3L] | 2.65 ± 0.59 | 2.83 ± 0.31 |
| EAPQWLESDSCQKCEQPFFWNIKQ [WDFY1] | 3.32 ± 0.7 | 3.48 ± 0.38 |
| FDLERENACATKEQKNHTFPRLNR [PLD5] | 4.55 ± 0.37 | 4.75 ± 0.28 |
| FQEDVPMSTEEQYRIRQVNIYYYL [EFHC1] | 2.52 ± 0.78 | 2.22 ± 0.15 |
| SSDSANTTIEDEDAKARKQEIIKT [CAMK2B] | 5.44 ± 0.21 | 5.42 ± 0.082 |
| SEDRTIRVWLKRDSGQYWPSIYHT [WDFY1] | 2.15 ± 0.19 | 2.25 ± 0.31 |

| Sequence | protein stability index (treatment: DMSO) | protein stability index (treatment: MLN4924 1 uM, 8 h) |
| --- | --- | --- |
| ETTGIQIWSEVFTVEKPGGKKVAV [ATL3] | 2.79 ± 0.24 | 3.01 ± 0.2 |
| PTFRFLTKMWHPNIYENGDVCISI [UBE2R2] | 3.01 ± 0.68 | 3.15 ± 0.71 |
| YMLFDPKDSVMQQNLVYYRFHRAR [P3H4] | 2.26 ± 0.25 | 2.27 ± 0.53 |
| GEDQAFGDWLLTANGSEIHKHVHF [SLC22A15] | 3.03 ± 0.26 | 3.09 ± 0.26 |
| KTSQLSYYYMGFYIHSCPKMKYKG [ATE1] | 2.47 ± 1.2 | 2.25 ± 0.66 |
| CFRMQINHAIDIICGFLKERCFRG [OAS1] | 2.44 ± 0.66 | 2.61 ± 0.36 |
| EPGPAAYGLKPLTPNSKYVKLNVG [KCTD13] | 3.66 ± 0.11 | 3.62 ± 0.31 |
| MRQRISRVEESALRALREKLFAHS [PPEF2] | 2.72 ± 0.24 | 2.71 ± 0.33 |
| ALVGDEVELPCRISPGKNATGMEV [MOG] | 4.03 ± 0.22 | 4.23 ± 0.26 |
| DKWFRKIKDHFCPFENQFHTEIQI [C8orf76] | 2.2 ± 0.54 | 2.32 ± 0.42 |
| PPLSDPKQAKVVARRESGGRPIKP [BRD3] | 5.21 ± 0.15 | 5.12 ± 0.18 |
| GRTGTLIACYVMKHYRFTHAEIIA [CDC14A] | 2.74 ± 0.89 | 3.11 ± 0.45 |
| AQPPDYTFPSGSGAHFPQVPGGAV [PI4K2A] | 3.93 ± 0.19 | 4.01 ± 0.12 |
| SAFPFSDKLGELSDKIGSTIDDTI [CLINT1] | 3.67 ± 0.2 | 3.81 ± 0.39 |
| SSGRRVSLHCLLDQFDKDLPVYLK [DENND6A] | 2.35 ± 0.45 | 2.4 ± 0.45 |
| LIAEVMGEDIPEKIKDEVHPEVKC [C8orf76] | 4.51 ± 0.58 | 4.31 ± 0.14 |
| EIPIHGNGEARQLPEDDGLEQDLQ [ARFIP2] | 5.04 ± 0.36 | 5.28 ± 0.12 |
| LSKSRENPEEDEDQRNPAKESLET [SOAT1] | 5.47 ± 0.27 | 5.66 ± 0.34 |
| EAERKIIEENITSAAPSNDQDGEY [SRPK2] | 5.66 ± 0.17 | 5.69 ± 0.26 |
| LLLHRGAGKEAMTSDGYTALHLAA [RIPK4] | 2.33 ± 0.25 | 2.22 ± 0.48 |
| YYNVVLLRYQFSRPGPQSVPLQLS [FCHO1] | 3.13 ± 0.43 | 2.91 ± 0.53 |
| PFSSHTYSQASELPTDAVDCMSRE [FBXO34] | 5.25 ± 0.29 | 5.01 ± 0.075 |
| GVVMKVRIPTCHDKPGTTQIVQLT [DENND6A] | 2.02 ± 0.19 | 2.15 ± 0.4 |

| Sequence | protein stability index (treatment: DMSO) | protein stability index (treatment: MLN4924 1 uM, 8 h) |
| --- | --- | --- |
| LGLTQNPEGQKVLFVTFLLIYMVT [OR4A15] | 2.75 ± 0.66 | 3.33 ± 1.1 |
| TNYNNVCRKFPRDMKAMSPENQEY [RHOBTB2] | 3.8 ± 0.12 | 4.13 ± 0.12 |
| GELLNMIVAVIDSAQLQELVCHVM [INTS3] | 2.92 ± 0.59 | 2.6 ± 0.72 |
| RGDLWISWEEGMKVFEELLLDADW [CRY1] | 2.31 ± 0.41 | 2.4 ± 0.29 |
| EEWGHQDPSKRALSRDTVQESYEN [ZNF263] | 5.27 ± 0.4 | 5.3 ± 0.23 |
| VVPARLKRASAPTFDNDYSLSELL [RIPK4] | 2.69 ± 0.17 | 2.8 ± 0.42 |
| RKRRRNGSKEGNHHSTQPKRNKRN [FAM104B] | 5.22 ± 0.38 | 4.92 ± 0.48 |
| GRLLLTLPLLRQTAGKVLAHFYGV [ESRRA] | 2.78 ± 0.54 | 3.05 ± 0.88 |
| GGIPALVKMLGSPVDSVLFYAITT [CTNNB1] | 3.19 ± 0.79 | 3.07 ± 0.99 |
| SESEQEFLYKTAGGLIYWIGLTKA [CD207] |  | 2.11 ± 0.59 |
| VGERLQDTHSWKSELQREMEALAA [TEKT4] | 3.9 ± 0.62 | 3.92 ± 0.56 |
| ELLQQLDLNNCKNNLEPILEGYIS [KRT71] | 2.54 ± 0.1 | 2.62 ± 0.36 |
| RLSVLLNLLPAAGELQESGLALCP [SMG5] | 2.02 ± 0.39 | 2.07 ± 0.18 |
| PQDLAPQVSAHHRSQESLTSQESE [TBC1D10A] | 5.64 ± 0.15 | 5.56 ± 0.23 |
| MVEADRPGKLFIGGLNTETNEKAL [RBMX] | 4.75 ± 0.096 | 4.39 ± 0.48 |
| RERDSVPKPSVLFLHPDLGVGGAE [ALG2] | 4.08 ± 0.41 | 4.21 ± 0.16 |
| KYNSARADFEQKMLDSALRFQAME [FCHO1] | 3.5 ± 0.074 | 3.48 ± 0.27 |
| TLRTLTGQDTMLKAMFSGRVEVLT [KCTD13] | 2.44 ± 0.22 | 2.37 ± 0.29 |
| RFNLILADTNSDRLFTVNDVKVGG [DCAF4] | 2.44 ± 0.15 | 2.31 ± 0.4 |
| ELDELQLCKNCFYLSNARPDNWFC [ZMYND11] | 2.01 ± 0.25 | 2.3 ± 0.62 |
| NNSIKDLTDGHFENILADNSVNDQ [SERPINB5] | 5.32 ± 0.12 | 5.26 ± 0.25 |
| LCLGGLACLIVMFLPEKKDTGVFA [SLC22A15] | 3.44 ± 0.26 | 3.08 ± 0.67 |
| NVNETDDWGRTALHYAAASDMDRN [ANKRD44] | 4.69 ± 0.15 | 4.77 ± 0.33 |

| Sequence | protein stability index (treatment: DMSO) | protein stability index (treatment: MLN4924 1 uM, 8 h) |
| --- | --- | --- |
| YVIGGRNETGYLSSVECYNLETNE [KLHL14] | 2.66 ± 0.31 | 3.02 ± 0.59 |
| AVVNELIDYGANVNQPNNNGFTPL [ANKRD44] | 3.05 ± 0.2 | 3.21 ± 0.17 |
| HGQAGQRQDPRPHGPQLPTGIEGN [ZBED2] | 4.91 ± 0.13 | 5.11 ± 0.15 |
| RNLYAYIQKLTQIETGENVTGMEL [PTPRD] | 2.41 ± 0.26 | 2.29 ± 0.53 |
| RGRMPPTQPTHGQFALTNGDPLNC [NR2F2] | 4.06 ± 0.12 | 3.97 ± 0.26 |
| TAFAPKMIVDLLSEKKTISFQGCM [OR4A15] | 2.08 ± 0.13 | 2.26 ± 0.42 |
| RAPVVGVRVNVLLSRYLIEPCGPG [DLC1] | 2.45 ± 0.7 | 2.79 ± 0.86 |
| LKERFAFLFNSELLSDVRFVLGKG [BTBD1] | 2.53 ± 0.23 | 2.64 ± 0.41 |
| IGLDNGTISEFILSEDYNKMTPVK [WDFY2] | 2.98 ± 0.47 | 3.16 ± 0.54 |
| TSYRLQGLKPNSLYYFRLAARSPQ [PTPRD] | 2.33 ± 0.52 | 2.42 ± 0.39 |
| MMSLTKLADKELVHMISWAKKIPG [ESR2] | 2.17 ± 0.19 | 2.16 ± 0.12 |
| SFIKNSDSFDKFEFCEPAFVVGNC [PCMTD1] | 2.37 ± 0.11 | 2.62 ± 0.22 |
| LGNEYPKLHYPELYVLKGGYKEFF [CDC25A] | 2.02 ± 0.23 | 2.01 ± 0.39 |
| SEGKVLTLAALLLNRSESDIRYLL [FEM1B] | 2.43 ± 0.56 | 2.38 ± 0.24 |
| NQLQTKVAVLEQEIKDKDQLVLRT [SASS6] | 4.65 ± 0.21 | 4.74 ± 0.27 |
| RKFWWKNVKMIVLICVIVFIIILF [VAMP8] | 3.13 ± 0.32 | 2.98 ± 0.3 |
| RDSFMRHRGHCERRHRLGGVGAVP [ZBTB22] | 3.22 ± 0.35 | 3.25 ± 0.4 |
| FAAEAGHIDIVKELIKWRAAIVVN [FEM1B] | 2.3 ± 0.28 | 2.02 ± 0.55 |
| KALNTFIDDLFAFVIKMPVMYRIG [CLPTM1] | 3.02 ± 0.53 | 2.82 ± 0.5 |
| LIERERSALGPNVTKITLESFLAW [ZC3H15] | 2.19 ± 0.47 | 2.49 ± 0.14 |
